Measured values: patent US20230212587A1, “Mutant Hydroxyphenylpyruvate Dioxygenase Polypeptide, Encoding Gene Thereof and Use Therefor” (Beijing Dabeinong Biotechnology Co., Ltd., priority 2019, published 2023)

B1: F372L (protein, listed as Avena sativa)
chain: MPPTPATATGAAAAAVTPEHAARSFPRVVRVNPRSDRFPVLSFHHVELWCADAASAAGRFSFALGAPLAARSDLSTGNSAHASLLLRSGALAFLFTAPYAPPPQEAATAAATASIPSFSADAARTFAAAHGLAVRSVGVRVADAAEAFRVSVAGGARPAFAPADLGHGFGLAEVELYGDVVLRFVSYPDETDLPFLPGFERVSSPGAVDYGLTRFDHVVGNVPEMAPVIDYMKGFLGFHEFAEFTAEDVGTTESGLNSVVLANNSEAVLLPLNEPVHGTKRRSQIQTYLEYHGGPGVQHIALASNDVLRTLREMRARTPMGGFEFMAPPQAKYYEGVRRIAGDVLSEEQIKECQELGVLVDRDDQGVLLQILTKPVGDRPTFFLEMIQRIGCMEKDEVGQEYQKGGCGGFGKGNFSELFKSIEDYEKSLEVKQSVVAQKS
modifications: AsHPPD Amido Acid Sequence
B2: F372S (protein, listed as Avena sativa)
chain: MPPTPATATGAAAAAVTPEHAARSFPRVVRVNPRSDRFPVLSFHHVELWCADAASAAGRFSFALGAPLAARSDLSTGNSAHASLLLRSGALAFLFTAPYAPPPQEAATAAATASIPSFSADAARTFAAAHGLAVRSVGVRVADAAEAFRVSVAGGARPAFAPADLGHGFGLAEVELYGDVVLRFVSYPDETDLPFLPGFERVSSPGAVDYGLTRFDHVVGNVPEMAPVIDYMKGFLGFHEFAEFTAEDVGTTESGLNSVVLANNSEAVLLPLNEPVHGTKRRSQIQTYLEYHGGPGVQHIALASNDVLRTLREMRARTPMGGFEFMAPPQAKYYEGVRRIAGDVLSEEQIKECQELGVLVDRDDQGVLLQISTKPVGDRPTFFLEMIQRIGCMEKDEVGQEYQKGGCGGFGKGNFSELFKSIEDYEKSLEVKQSVVAQKS
modifications: AsHPPD Amido Acid Sequence
B3: F372P (protein, listed as Avena sativa)
chain: MPPTPATATGAAAAAVTPEHAARSFPRVVRVNPRSDRFPVLSFHHVELWCADAASAAGRFSFALGAPLAARSDLSTGNSAHASLLLRSGALAFLFTAPYAPPPQEAATAAATASIPSFSADAARTFAAAHGLAVRSVGVRVADAAEAFRVSVAGGARPAFAPADLGHGFGLAEVELYGDVVLRFVSYPDETDLPFLPGFERVSSPGAVDYGLTRFDHVVGNVPEMAPVIDYMKGFLGFHEFAEFTAEDVGTTESGLNSVVLANNSEAVLLPLNEPVHGTKRRSQIQTYLEYHGGPGVQHIALASNDVLRTLREMRARTPMGGFEFMAPPQAKYYEGVRRIAGDVLSEEQIKECQELGVLVDRDDQGVLLQIPTKPVGDRPTFFLEMIQRIGCMEKDEVGQEYQKGGCGGFGKGNFSELFKSIEDYEKSLEVKQSVVAQKS
modifications: AsHPPD Amido Acid Sequence
B4: F372W (protein, listed as Avena sativa)
chain: MPPTPATATGAAAAAVTPEHAARSFPRVVRVNPRSDRFPVLSFHHVELWCADAASAAGRFSFALGAPLAARSDLSTGNSAHASLLLRSGALAFLFTAPYAPPPQEAATAAATASIPSFSADAARTFAAAHGLAVRSVGVRVADAAEAFRVSVAGGARPAFAPADLGHGFGLAEVELYGDVVLRFVSYPDETDLPFLPGFERVSSPGAVDYGLTRFDHVVGNVPEMAPVIDYMKGFLGFHEFAEFTAEDVGTTESGLNSVVLANNSEAVLLPLNEPVHGTKRRSQIQTYLEYHGGPGVQHIALASNDVLRTLREMRARTPMGGFEFMAPPQAKYYEGVRRIAGDVLSEEQIKECQELGVLVDRDDQGVLLQIWTKPVGDRPTFFLEMIQRIGCMEKDEVGQEYQKGGCGGFGKGNFSELFKSIEDYEKSLEVKQSVVAQKS
modifications: AsHPPD Amido Acid Sequence

Tested on: Arabidopsis thaliana T1 plants
Test: Topramezone tolerance of transgenic Arabidopsis thaliana T1 plants (pesticide damage grade by bleached leaf area, score, resistance evaluation)
Type: in vivo
Set-up: score: scale not given here
Conditions: HPPD from Avena sativa source; for Grade 0 / Grade 1 / Grade 2 / Grade 3: number of plants
How it was run: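 Eighteen days after sowing, wild-type and HPPD-transgenic T1 Arabidopsis receive a topramezone spray at 1×, 2× or 4× field rate (25–100 g ai/ha) or water. Seven days later each plant is graded by its proportion of bleached leaf area.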

| Molecule | Resistance Grade (topramezone 25 g ai/ha (1x)) | score (topramezone 25 g ai/ha (1x)) | Grade 0 (topramezone 25 g ai/ha (1x)) | Grade 1 (topramezone 25 g ai/ha (1x)) | Grade 2 (topramezone 25 g ai/ha (1x)) | Grade 3 (topramezone 25 g ai/ha (1x)) | Resistance Grade (topramezone 50 g ai/ha (2x)) | score (topramezone 50 g ai/ha (2x)) | Grade 0 (topramezone 50 g ai/ha (2x)) | Grade 1 (topramezone 50 g ai/ha (2x)) | Grade 2 (topramezone 50 g ai/ha (2x)) | Grade 3 (topramezone 50 g ai/ha (2x)) | Resistance Grade (topramezone 100 g ai/ha (4x)) | score (topramezone 100 g ai/ha (4x)) | Grade 0 (topramezone 100 g ai/ha (4x)) | Grade 1 (topramezone 100 g ai/ha (4x)) | Grade 2 (topramezone 100 g ai/ha (4x)) | Grade 3 (topramezone 100 g ai/ha (4x)) |
| --- | --- | --- | --- | --- | --- | --- | --- | --- | --- | --- | --- | --- | --- | --- | --- | --- | --- | --- |
| B1 | Highly resistant | 0 | 20 | 0 | 0 | 0 | Highly resistant | 0 | 20 | 0 | 0 | 0 | Moderately resistant | 30 | 6 | 10 | 4 | 0 |
| B2 | Highly resistant | 0 | 20 | 0 | 0 | 0 | Highly resistant | 0 | 20 | 0 | 0 | 0 | Highly resistant | 0 | 20 | 0 | 0 | 0 |
| B3 | Highly resistant | 0 | 20 | 0 | 0 | 0 | Highly resistant | 0 | 20 | 0 | 0 | 0 | Moderately resistant | 33 | 4 | 12 | 4 | 0 |
| B4 | Poorly resistant | 37 | 6 | 6 | 8 | 0 | Non-resistant | 100 | 0 | 0 | 0 | 20 | Non-resistant | 100 | 0 | 0 | 0 | 20 |
